Measured values: the supplement of paper PMC9170038

Tested on: MS2 coat protein
Assay: apparent KD of MS2 coat protein; designed switch direction (-1 OFF switch, 1 ON switch): 1; higher = weaker reporter binding
Method in brief: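 An oligonucleotide input, 200 uM small-molecule ligand, or no input was present during titration of SNAP-549-labelled MS2 coat protein, which was doubled from 0.7 or 1.5 nM to 3 µM. Designed RNA switches had been transcribed on Illumina chips by stalled E. coli RNA polymerase. Apparent KD per design is the median over clusters of curves fitted to normalised cluster fluorescence.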

[1] = input ligand: microRNA oligo, concentration not stated
[2] = Eterna round: R95, input ligand: FMN 200 uM
[3] = Eterna round: R95, input ligand: microRNA oligo, concentration not stated
[4] = Eterna round: R95, input ligand: none

Row | Sequence | apparent KD of MS2 coat protein (input ligand: FMN 200 uM) [nM] | apparent KD of MS2 coat protein [1] [nM] | apparent KD of MS2 coat protein (input ligand: none) [nM] | apparent KD of MS2 coat protein [2] [nM] | apparent KD of MS2 coat protein [3] [nM] | apparent KD of MS2 coat protein [4] [nM]
1 | AGCCGAAGCACAGGAUAUACAUGUAUACAUGAGGAUCACCCAUGUAGCAACACGUGGUAGUGAUUGUAGAAGGGUGCUCGGCGC [Omei SS(NG)2 Cv14] (Eterna round: R96, puzzle: Same State NG 2) | 21.3 | 16 | 25.3 |  |  | 
2 | AAGUAACAUGAGGAUCACCCAUGUGAGGUGAGCGUAGGAUAUCGAGAAGGAAGGGUGGAGCGAGAAGGACGAGAGG [JR_SS1_Sub0100] (puzzle: Same State 1) |  |  |  | 191 | 401 | 270
3 | GUUAGGAAUCUAGCAAACAUGAGGAUCACCCAUGUUAGUGGGAAGGAUAUGGUACAGAAACUGUACCAGAAGGUCUUAUUGAUU [Omei SS(NG) 3 AV4] (Eterna round: R96, puzzle: Same State NG 3) | 40.2 | 33 | 59 |  |  | 
4 | UUGAAGAAUUAAGGAUAUUGAAUACAUAUGUUUAACAUGAGGAUCACCCAUGUGGGUUGCGGUGUCGAGAAGGUAAAUUAAUAG [Mat - same State NG 2 - JL mod - D94] (Eterna round: R96, puzzle: Same State NG 2) | 221 | 191 | 291 |  |  | 
5 | AUUAUUUAUGCAGGAUAUGAUUAACAUGAGGAUCACCCAUGUGGUGUUGUGAGUAAGGAGAGUGAUCAGAAGGGCAUUUUUUUG [JMF's solution 57] (Eterna round: R96, puzzle: Same State NG 2) | 666 | 451 | 350 |  |  | 
6 | UGGAUCUAGGCUUGCCUGGGUCCAUGUUGACAUGAGGAUCACCCAUGUGUAUUUUUUAAGCUUUUUGUUUGUCAACA [JL A Humble Attempt mod 6] (puzzle: Sensor for hsa-mir-208a) |  |  |  | 42.4 | 13.2 | 42.5
7 | UUUCUCAUGUAAGGAUAUGCAGCCGUUUCGGCUGCAGAAGGUACUAUAAUACAUGAGGAUCACCCAUGUCUCUCGCAUUGCGAG [JL SSNG1 1.48] (Eterna round: R96, puzzle: Same State NG 1) | 263 | 28.9 | 62 |  |  | 
8 | UAGUUACUAUCUCAGGAUAUCAUGUCAAAGACAUGAGGAUCACCCAUGUACCAGGAAACUGGUUAUGAGAAGGGAGAUAGUAACU [Mat - Same State 2 - Mod - D55] (puzzle: Same State 2) |  |  |  | 134 | 104 | 1070
9 | GGUCCAGCCUGAGCUGGACAAAAGCAUGUACAUGAGGAUCACCCAUGUCAUGUACAAGUUUUUUGCUCGUCUUAAAA [JL mod - D87 - 12] (puzzle: Sensor for hsa-mir-208a) |  |  |  | 35.3 | 10.6 | 38.7
10 | AAAGAAACAUGAGGAUCACCCAUGUACCGCGGAAUGUGUGCACAGGAUAUGUACAGCUUUUGCUUACAGAAGGGUGCGCCCGUG [Enorso] (Eterna round: R96, puzzle: Same State NG 3) | 20.8 | 38.7 | 70 |  |  | 
11 | UGCCUGAGUCGAGGAUAUUAUGGAUCAAUUAAUACAUGAGGAUCACCCAUGUAAUUAAUUUAACAUGAGAAGGUGACUCAGGCU [SSNG2/10-B3] (Eterna round: R96, puzzle: Same State NG 2) |  | 8.4 |  |  |  | 
12 | GAGUGGCAGUUAGGAUAUAUAGUGAUAAUGACAAUAGAAGGAACAGACAUGAGGAUCACCCAUGUAGGACUAAUCCAGAGAGAG [Parity 36 - Jieux - Same State NG 1] (Eterna round: R96, puzzle: Same State NG 1) | 32.1 | 22.5 | 30.2 |  |  | 
13 | AACAGUCGGCGAGGAUAUGGACGGACAGGCUUGCCUGUGCGGCUCACAUGAGGAUCACCCAUGUUCUAGAAGGCGCCACUGAGA [Atteve] (Eterna round: R96, puzzle: Same State NG 2) | 21.3 | 50 | 81.7 |  |  | 
14 | GCUCGACGUAUGGCCUACAUGAGGAUCACCCAUGUGAUUGGGCAGGAUAUCUAGAUGCAGGAUGUAGAGAAGGGCCCGUCGAGC [SameState NG3 #47] (Eterna round: R96, puzzle: Same State NG 3) | 393 | 92 | 230 |  |  | 
15 | GCUCGGAUGAUGGCCCACAUGAGGAUCACCCAUGUGAGUGGGCAGGAUAUCUAGAUUAAGGAUGUAGAGAAGGGCCUACCGAGC [SameState NG3 #34] (Eterna round: R96, puzzle: Same State NG 3) | 2070 | 100 | 759 |  |  | 
16 | AAGAAACAUGAGGAUCACCCAUGUCGAGAGAGACGAGGAUAUCUGAAUCGAUUAGAUUACGGAGAAGGCGUGAAAA [Same State 1.2 (Same State of Confusion2 - minimal change )] (Eterna round: R96, puzzle: Same State 1) | 22.1 | 22 | 27 |  |  | 
17 | CGACACACGGCAGGAUAUGCUUAGCAAAGCUAAGCAGAAGGGCCUCAUGUCGUGGAAACGUGACAUGAGGAUCACCCAUGUUGC [Omei SS(NG)1 Cv1] (Eterna round: R96, puzzle: Same State NG 1) | 21 | 5.59 | 36.3 |  |  | 
18 | UGUUAGUAGUGAGGAUAUACAUACACCUUACAUGAGGAUCACCCAUGUUUUAAUAUUGAUAGUUAGUAGAAGGCACAUGAUUAU [JR_SSNG2_Sub043] (Eterna round: R96, puzzle: Same State NG 2) | 22.1 | 35.8 | 45.7 |  |  | 
19 | AUGUAUCGCCUCGAGGAUAUCCUGUCAUGCACAUGAGGAUCACCCAUGUAAGAGCGAGUUUAAUGGGAGAAGGCGAGUUCUCGGU [JR_SS002_Sub1707] (Eterna round: R96, puzzle: Same State 2) | 46.9 | 78.5 | 106 |  |  | 
20 | UAGCUCGUGUGAGGAUAUGCCGCCGUUUCGGCUGCAGAAGGUGCUACGUUACAUGAGGAUCACCCAUGUCUCUGUUGUUUCGUG [salish99_SSNG1_r04_957] (Eterna round: R96, puzzle: Same State NG 1) | 18.9 | 19.6 | 21.8 |  |  | 
21 | GUGGUCAGACAUGAGGAUCACCCAUGUGGAAUAAAUAAGGGUCAGGAUAUCUAAUAUAGGAUAUAAGAGAAGGGAUGGUUGGUG (Eterna round: R96, puzzle: Same State NG 3) | 89.2 | 89.4 | 82.7 |  |  | 
22 | AGAAGACAUGAGGAUCACCCAUGUACCUCAUAAGGAGAGAGCGAGGAUAUGUAGAGAGAGAGGGAACAGAAGGUGUGAGAGGAA [Default title] (Eterna round: R96, puzzle: Same State NG 3) | 218 | 99.4 | 161 |  |  | 
